Legend:
[1] = biological target: European Hornbeam (Car b 1 isoform 2, MyBiosource, Cat# MBS 1043940) (European Hornbeam) (UniProt P38950); experiment: SPR Biacore 4000, mAb captured by anti-human Fc, 25 C
[2] = biological target: European Hornbeam (Car b 1 isoform 1A & 1B, MyBiosource, Cat#MBS 1200018) (European Hornbeam) (UniProt P38949); experiment: as above
[3] = biological target: Apple (Mal d 1, MyBiosource, Cat# MBS 1224919) (Apple) (UniProt P43211); experiment: as above
[4] = biological target: Celery (Api g 1, MyBiosource, Cat# MBS 1171376) (Celery) (UniProt P49372); experiment: as above
[5] = biological target: Alder (Aln g 1, MyBiosource, Cat# MBS 1041484) (Alder) (UniProt P38948); experiment: as above
[6] = biological target: Hazel (Cor A 1, MyBiosource, Cat# MBS5304600) (Hazel) (UniProt Q08407); experiment: as above
[7] = biological target: natural Bet v 1 (Indoor Biotechnologies, # NA-BV1-1) (Betula verrucosa (Betula pendula)) (UniProt P15494); experiment: blocking ELISA, captured IgE of donor 29718-MW, 1 ug/mL antibody
[8] = biological target: natural Bet v 1 (Indoor Biotechnologies, # NA-BV1-1) (Betula verrucosa (Betula pendula)) (UniProt P15494); experiment: dose-response blocking ELISA, captured IgE of donor 25340-RR, at 1 ug/mL antibody
[9] = biological target: natural Bet v 1 (Indoor Biotechnologies, # NA-BV1-1) (Betula verrucosa (Betula pendula)) (UniProt P15494); experiment: blocking ELISA, captured IgE of donor 26532-CC, 1 ug/mL antibody
[10] = biological target: natural Bet v 1 (Indoor Biotechnologies, # NA-BV1-1) (Betula verrucosa (Betula pendula)) (UniProt P15494); experiment: blocking ELISA, captured IgE of donor 23939-MH, 1 ug/mL antibody
[11] = biological target: natural Bet v 1 (Indoor Biotechnologies, # NA-BV1-1) (Betula verrucosa (Betula pendula)) (UniProt P15494); experiment: blocking ELISA, captured IgE of donor 25414-CW, 1 ug/mL antibody
[12] = biological target: natural Bet v 1 (Indoor Biotechnologies, # NA-BV1-1) (Betula verrucosa (Betula pendula)) (UniProt P15494); experiment: dose-response blocking ELISA, captured IgE of donor 23939-MH, at 1 ug/mL antibody
[13] = biological target: natural Bet v 1 (Indoor Biotechnologies, # NA-BV1-1) (Betula verrucosa (Betula pendula)) (UniProt P15494); experiment: dose-response blocking ELISA, captured IgE of donor 25609-MS, at 1 ug/mL antibody
[14] = biological target: natural Bet v 1 (Indoor Biotechnologies, # NA-BV1-1) (Betula verrucosa (Betula pendula)) (UniProt P15494); experiment: blocking ELISA, captured IgE of donor 25340-RR, 1 ug/mL antibody
[15] = biological target: natural Bet v 1 (Indoor Biotechnologies, # NA-BV1-1) (Betula verrucosa (Betula pendula)) (UniProt P15494); experiment: blocking ELISA, captured IgE of donor 22627-MN, 1 ug/mL antibody
[16] = biological target: natural Bet v 1 (Indoor Biotechnologies, # NA-BV1-1) (Betula verrucosa (Betula pendula)) (UniProt P15494); experiment: blocking ELISA, captured IgE of donor 25299-RJ, 1 ug/mL antibody
[17] = biological target: natural Bet v 1 (Indoor Biotechnologies, # NA-BV1-1) (Betula verrucosa (Betula pendula)) (UniProt P15494); experiment: blocking ELISA, captured IgE of donor 25609-MS, 1 ug/mL antibody
[18] = biological target: natural Bet v 1 (Indoor Biotechnologies, # NA-BV1-1) (Betula verrucosa (Betula pendula)) (UniProt P15494); experiment: blocking ELISA, captured IgE of donor 23035-BL, 1 ug/mL antibody
[19] = biological target: natural Bet v 1 (Indoor Biotechnologies, # NA-BV1-1) (Betula verrucosa (Betula pendula)) (UniProt P15494); experiment: blocking ELISA, captured IgE of donor 23658-MD, 1 ug/mL antibody

Chain of European Hornbeam (Car b 1 isoform 1A & 1B, MyBiosource, Cat#MBS 1200018) (European Hornbeam) (P38949 2-160): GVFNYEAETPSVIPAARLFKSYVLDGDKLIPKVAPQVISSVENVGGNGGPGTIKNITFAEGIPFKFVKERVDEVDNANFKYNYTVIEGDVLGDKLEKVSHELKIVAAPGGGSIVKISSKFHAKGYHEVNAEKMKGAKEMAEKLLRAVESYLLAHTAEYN
Chain of European Hornbeam (Car b 1 isoform 2, MyBiosource, Cat# MBS 1043940) (European Hornbeam) (P38950 2-160 limits assumed): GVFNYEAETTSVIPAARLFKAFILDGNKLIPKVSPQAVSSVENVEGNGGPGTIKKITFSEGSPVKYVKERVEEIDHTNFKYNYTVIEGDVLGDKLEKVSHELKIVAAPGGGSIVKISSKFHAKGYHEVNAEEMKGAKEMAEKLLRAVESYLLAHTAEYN
Chain of Alder (Aln g 1, MyBiosource, Cat# MBS 1041484) (Alder) (P38948 2-160 limits assumed): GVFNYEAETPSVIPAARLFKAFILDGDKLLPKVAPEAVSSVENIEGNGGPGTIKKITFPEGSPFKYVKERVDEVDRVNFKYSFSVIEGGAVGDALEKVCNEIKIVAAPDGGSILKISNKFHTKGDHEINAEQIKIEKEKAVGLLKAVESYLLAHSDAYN
Chain of Celery (Api g 1, MyBiosource, Cat# MBS 1171376) (Celery) (P49372 whole entry): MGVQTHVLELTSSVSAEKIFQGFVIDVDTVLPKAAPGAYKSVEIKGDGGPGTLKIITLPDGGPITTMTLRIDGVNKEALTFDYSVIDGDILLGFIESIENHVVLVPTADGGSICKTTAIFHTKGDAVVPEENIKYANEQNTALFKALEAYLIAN
Chain of Apple (Mal d 1, MyBiosource, Cat# MBS 1224919) (Apple) (P43211 2-159 limits assumed): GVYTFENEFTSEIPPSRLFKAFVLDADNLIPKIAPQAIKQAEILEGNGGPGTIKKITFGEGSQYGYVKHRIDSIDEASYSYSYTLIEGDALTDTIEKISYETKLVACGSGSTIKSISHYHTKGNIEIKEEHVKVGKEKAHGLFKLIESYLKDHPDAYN
Chain of Hazel (Cor A 1, MyBiosource, Cat# MBS5304600) (Hazel) (Q08407 2-160 limits assumed): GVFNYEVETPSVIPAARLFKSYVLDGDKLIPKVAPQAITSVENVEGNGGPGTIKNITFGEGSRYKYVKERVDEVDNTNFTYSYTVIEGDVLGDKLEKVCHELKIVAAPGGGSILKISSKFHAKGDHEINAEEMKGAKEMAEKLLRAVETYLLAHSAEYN

| 100 nM Analyte Bound (RU) [1] | 100 nM Analyte Bound (RU) [2] | 100 nM Analyte Bound (RU) [3] | 100 nM Analyte Bound (RU) [4] | 100 nM Analyte Bound (RU) [5] | 100 nM Analyte Bound (RU) [6] | Percent Blocking [7] | Percent Blocking [8] | Percent Blocking [9] | Percent Blocking [10] | Percent Blocking [11] | Percent Blocking [12] | Percent Blocking [13] | Percent Blocking [14] | Percent Blocking [15] | Percent Blocking [16] | Percent Blocking [17] | Percent Blocking [18] | Percent Blocking [19] | Substance |
| --- | --- | --- | --- | --- | --- | --- | --- | --- | --- | --- | --- | --- | --- | --- | --- | --- | --- | --- | --- |
| 0 RU | 0 RU | 0 RU | -1 RU | 0 RU | 1 RU | – | – | – | – | – | – | – | – | – | – | – | – | – | Isotype Control (antibody) |
| – | – | – | – | – | – | -2% | 10.6% | -4% | -2% | -4% | 16.8% | 8.8% | -1% | -3% | -4% | -2% | -5% | -3% | Isotype control (antibody) |

Source: US20180346555A1
